Columns and labels:
p21 [1] = experiment: p21 expression by qPCR in HCT116; type: cell-based, human; details: HCT116 cells
Method: (§1) FIG. 24. Overexpression of the micropeptide of SEQ ID NO: 3 induces p21 upregulation and a pro-apoptotic program (A) qPCR analysis of p21 expression in HCT116 and A549 cancer cell lines upon SEQ ID NO: 3 overexpression. (B) Western blot analysis of p21 protein in A549 SEQ ID NO: 3-overexpressing cells. Cells treated with Nutlin-3 (10 μM) were used as positive control for p21 upregulation. (C) qPCR analysis of the indicated apoptosis-related genes in SEQ ID NO: 3-overexpressing HCT116 cells.
(§2) Total RNA was extracted with Trizol® and treated with TURBO™ DNase following provider's recommendations. 1 μg of RNA was retrotranscribed using iScript™ cDNA Synthesis Kit (BioRad). Gene expression was analysed by quantitative real time PCR using PowerUp SYBR Green Master Mix (Thermo Fisher Scientific) in the 7900HT Fast Real-Time PCR System (Applied Biosystems). Cycle threshold (Ct) values were normalized to GAPDH.

[2] = tested on: HCT116, human colorectal cancer; experiment: Cell death after retroviral overexpression (phase contrast images); type: cell-based
Text: (§3) FIG. 23. Overexpression of the micropeptide of SEQ ID NO: 3 in cancer cell lines. (A) Analysis of SEQ ID NO: 3 overexpression by qPCR in A459 cells. (B) Detection of SEQ ID NO: 3 micropeptide expression in A459 cells by Western blot. (C) Phase contrast images of the indicated cell lines after SEQ ID NO: 3 overexpression.

A549, human lung cancer = experiment: as above; type: cell-based
Text: as §3

p21 [3] = experiment: p21 expression by qPCR in A549; type: cell-based, human; details: A459 cells
Method: as §1, §2

p21 protein = p21 protein by Western blot in A549; type: cell-based, human
Method: as §1
Cells pellets (4-5*10^6 cells) were homogenized in medium-salt lysis buffer (150 mM NaCl, 50 mM Tris pH 8, 1% NP40 and protein inhibitors cocktail). 50 μg of protein was loaded per lane in a 12% acrylamide gel and electrophoresed in Tris-Glycine SDS Running Buffer. The following antibodies were used: Anti-HA-Tag (Abcam, 1:5000), Anti-p53 (Santa Cruz, 1:1000), Anti-p21 (Thermo Fisher, 1:1000), Anti-GAPDH (Thermo Fisher, 1:5000).

BAX, BAK and BCL-2 = experiment: Apoptosis-related gene expression by qPCR in HCT116; type: cell-based, human; details: HCT116 colorectal cancer cell line
Method: as §1, §2

[4] = tested on: EMT regulators and adhesion factors in MIA PaCa-2 pancreatic cancer cell line; experiment: EMT related gene expression by qPCR in MIA PaCa-2; type: cell-based; details: MIA PaCa-2, vs empty vector
Text: (§4) FIG. 15. Expression of the micropeptide of SEQ ID NO: 2 induces loss of mesenchymal identity in IMR90 (A), MIA PaCa-2 (B) and BxPC-3 (C) cell lines. mRNA levels of the indicated genes measured by qPCR. Values are relative to cells expressing the empty vector as a control. *P<0.05, **P<0.01, ***P<0.001 using Student's t-test for statistics. Error bars represent standard error of n=3 technical replicates.
as §2

BxPC-3 cell line = experiment: Invasion assay (Boyden chamber, Matrigel); type: cell-based; details: BxPC-3, 24 hours after seeding, vs empty vector
Method: (§5) FIG. 18. Expression of the micropeptide of SEQ ID NO: 2 impairs cell invasion in pancreatic cancer cells. (A) Invasion of BxPC-3 cells transduced with micropeptide of SEQ ID NO: 2 or empty vector across matrigel-covered inserts. Representative pictures of invading cells 24 hours after seeding. (B) Relative number of invading cells. Bars represent the average of two independent experiments±SD (n=2), as relative to invading cells in the empty vector conditions. * p<0.05, using Student's t-test.
(§6) BxPC-3, MDA-MB-231, A549 and H10 cell lines were trypsinized, counted, and 20.000 cells/well were seeded in triplicate in a Corning® cell culture insert (Boyden chamber) in which the porous membrane is coated with a layer of Matrigel® to mimic an extra cellular matrix (ECM). Cells were allowed to invade through the coated membrane for 24 hours in the cell incubator at 37° C. After the incubation time, culture inserts were fixed in methanol 5 minutes at RT and stained using Crystal Violet 20 minutes at RT. The excess of Crystal Violet staining was removed washing with PBS and pictures of the chambers were taken using an Olympus CeIIR microscope. Invading cells were counted using ImageJ and fold change was calculated normalizing to the control.

[5] = tested on: SLUG, ZEB1, ZEB2, VIMENTIN, E-CADHERIN and CYTOKERATIN-5 in MDA-MB-231; experiment: Mesenchymal and epithelial gene expression by qPCR in MDA-MB-231; type: cell-based, human; details: MDA-MB-231, vs empty vector
Method: (§7) FIG. 21. Overexpression of the micropeptide of SEQ ID NO: 2 induces loss of mesenchymal identity. mRNA levels of the indicated genes were measured by qPCR in MDA-MB-231 cell line. Values are relative to cells expressing the empty vector as a control. *P<0.05; **P<0.01; ***P<0.001 using Student's t-test for statistics. Error bars represent standard error of n=3 technical replicates.
as §2

[6] = tested on: EMT regulators and adhesion factors in human primary fibroblasts (IMR90); experiment: EMT related gene expression by qPCR in IMR90; type: cell-based; details: vs empty vector
Text: as §4, §2

[7] = tested on: EMT regulators and adhesion factors in BxPC-3 pancreatic cancer cell line; experiment: EMT related gene expression by qPCR in BxPC-3; type: cell-based; details: BxPC-3, vs empty vector
Text: as §4, §2

[8] = tested on: PDAC pancreatic cancer cells co-cultured with CAFs; experiment: CAFs pro-invasive activity, co-culture with PDAC cells in Matrigel coated inserts; type: cell-based, mice; details: micropeptide expressed in CAFs in bottom compartment, PDAC cells co-cultured 24 h
Method: FIG. 19. Expression of the micropeptide of SEQ ID NO: 2 reduces pro-tumoral activity of mCAFs cells. (A) Invasion of WT PDAC pancreatic cancer cells across matrigel-covered inserts where mCAFs expessing the micropeptide of SEQ ID NO: 2 or empty vector were seeded in the bottom compartment of the Boyden chambers. Representative pictures of invading cells 24 hours after seeding. (B) Relative number of invading cells.±SD (n=3 technical replicates), as relative to invading cells in the empty vector conditions.
BxPC-3 and A549 cell lines were cultured in RPMI supplemented with 10% of FBS and penicillin-streptomycin. Patient derived-H10 skin squamous cell carcinoma cell line was cultured in DMEM-F12 supplemented with B27 and penicillin-streptomycin. Cancer associated fibroblasts (CAFs) and PDAC cell lines were derived from LSL^−KrasG12D/+;LSL-Trp53R172H/+;Pdx-1-Cre mice and cultured in DMEM-F12 supplemented with 10% FBS and penicillin-streptomycin. All the other cell lines were cultured in DMEM supplemented with 10% of FBS and penicillin streptomycin. Cultures were routinely tested for mycoplasma and were always negative.
In order to test CAFs pro-invasive activity, 40.000 CAFs/well were seeded in 24-well plates. 48 h later, PDAC cells were trypsinized, counted, and 20.000 cells were seeded in the upper compartment of Matrigel® coated inserts that were placed over CAFs containing wells. […]

[9] = tested on: EMT regulators, adhesion factors and METALLOPROTEINASE-2 in murine pancreatic cancer associated fibroblasts (mCAFs); experiment: EMT related gene expression by qPCR in mCAFs; type: cell-based; details: vs empty vector
Method: as §7, with “16.” for “21.”, “mCAFs (A-B) cells.” for “MDA-MB-231 cell line.”
as §2

[10] = tested on: MDA-MB-231 breast cancer cell line; experiment: Invasion assay (Boyden chamber, Matrigel); type: cell-based, human; details: MDA-MB-231, 24 hours after seeding, vs empty vector
Method: as §5, with “22.” for “18.”, “reduces” for “impairs”, “of breast” for “in pancreatic”, “MDA-MB-231 breast cancer” for “BxPC-3”, “cells±SD (n=3 technical replicates),” for “cells. Bars represent the average of two independent experiments±SD (n=2),”
as §6

BxPC-3 cells = experiment: Wound healing assay; type: cell-based; details: BxPC-3, vs empty vector
Method: (§8) FIG. 17. The micropeptide of SEQ ID NO: 2 impairs migration capability of pancreatic cancer cell lines. Wound healing assay was performed in MIA PaCa-2 (A) and BxPC-3 (B) cells infected with MIDORI or empty vector. Phase contrast images show the wound at the indicated time points after the scratch was performed.
(§9) MIA PaCa-2 and BxPC-3 cells were trypsinized, counted, and 400,000 cells/well were seeded in 6-well plates. Next day, a pipette tip was used to scratch the surface of cell monolayer, forming a wound. An Olympus CeIIR microscope equipped with a Hamamatsu C9100 camera was used to follow the closure of the wound.

MIA PaCa-2 cells = experiment: Wound healing assay; type: cell-based; details: MIA PaCa-2, vs empty vector
Method: as §8, §9

Row | expression of EMT regulators SNAIL, SLUG, ZEB1, ZEB2, TWIST1 and VIMENTIN (if expressed) and adhesion factors COLLAGEN I, COLLAGEN IV, CD44 and FIBRONECTIN [9] | expression of METALLOPROTEINASE-2 [9] | Molecule | p21 expression (qPCR) (p21 [1]) | cell death [2] | cell death (A549, human lung cancer) | p21 expression (qPCR) (p21 [3]) | p21 protein levels (p21 protein) | expression of the antiapoptotic gene BCL-2 (BAX, BAK and BCL-2) | expression of the pro-apoptotic genes BAX and BAK (BAX, BAK and BCL-2) | expression of EMT regulators SNAIL, SLUG, ZEB1, ZEB2, TWIST1 and VIMENTIN (if expressed) and adhesion factors COLLAGEN I, COLLAGEN IV, CD44 and FIBRONECTIN [4] | invasion (BxPC-3 cell line) | expression of epithelial markers E-CADHERIN and CYTOKERATIN-5 [5] | expression of the EMT regulators SLUG, ZEB1, ZEB2 and VIMENTIN [5] | expression of EMT regulators SNAIL, SLUG, ZEB1, ZEB2, TWIST1 and VIMENTIN (if expressed) and adhesion factors COLLAGEN I, COLLAGEN IV, CD44 and FIBRONECTIN [6] | expression of EMT regulators SNAIL, SLUG, ZEB1, ZEB2, TWIST1 and VIMENTIN (if expressed) and adhesion factors COLLAGEN I, COLLAGEN IV, CD44 and FIBRONECTIN [7] | pancreatic cancer cell invasion (non-cell autonomous) [8] | invasion capability [10] | migration capability in wound healing assays (BxPC-3 cells) | migration capability in wound healing assays (MIA PaCa-2 cells)
1 |  |  | SEQ ID NO: 3: 78-amino acid micropeptide encoded by the first exon of LINC0086 lncRNA (protein, listed as Homo sapiens) MAASAALSAAAAAAALSGLAVRLSRSAAARGSYGAFCKGLTRTLLTFFDLAWRLRMNFPYFYIVASVMLNVRLQVRIE | substantial p21 upregulation | massive cell death | massive cell death | substantial p21 upregulation | increased p21 protein levels | downregulation | upregulation |  |  |  |  |  |  |  |  |  | 
2 | downregulation | downregulation | SEQ ID NO: 2: 64-amino acid micropeptide encoded by ZEB2 antisense 1 (ZEB2AS1) long non-coding RNA (protein, listed as Homo sapiens) MVRRKSMKKPRSVGEKKVEAKKQLPEQTVQKPRQECREAGPLFLQSRRETRDPETRATYLCGEG |  |  |  |  |  |  |  | downregulation | decreased invasion | upregulation | downregulation | downregulation | downregulation | reduces pancreatic cancer cell invasion | decreased invasion capability | decreased migration capability | decreased migration capability
